Reference: patent US10597649B2, “Tau protease compositions and methods of use” (Oligomerix, Inc., priority 2011, dated 2020)

B1: TP-83: 83 amino acid truncated tau peptide, 4R2N 258-340 (SEQ ID NO:4) (protein, listed as Homo sapiens)
chain: MSKIGSTENLKHQPGGGKVQIINKKLDLSNVQSKCGSKDNIKHVPGGGSVQIVYKPVDLSKVTSKCGSLGNIHHKPGGGQVEVK
B2: TP-81: 81 amino acid truncated tau peptide, 4R2N 260-340 (SEQ ID NO:5) (protein, listed as Homo sapiens)
chain: MIGSTENLKHQPGGGKVQIINKKLDLSNVQSKCGSKDNIKHVPGGGSVQIVYKPVDLSKVTSKCGSLGNIHHKPGGGQVEVK
B3: TP-99: 99-amino acid fragment of tau 4R2N, amino acids 241-340, plus initiating methionine (SEQ ID NO:3) (protein)
chain: MRLQTAPVPMPDLKNVKSKIGSTENLKHQPGGGKVQIINKKLDLSNVQSKCGSKDNIKHVPGGGSVQIVYKPVDLSKVTSKCGSLGNIHHKPGGGQVEVK
B4: TP-210: 210-aa fragment of tau protein, amino acids 131-340 of tau 4R2N plus initiating methionine (SEQ ID NO:1) (protein, listed as Homo sapiens)
chain: MSKDGTGSDDKKAKGADGKTKIATPRGAAPPGQKGQANATRIPAKTPPAPKTPPSSGEPPKSGDRSGYSSPGSPGTPGSRSRTPSLPTPPTREPKKVAVVRTPPKSPSSAKSRLQTAPVPMPDLKNVKSKIGSTENLKHQPGGGKVQIINKKLDLSNVQSKCGSKDNIKHVPGGGSVQIVYKPVDLSKVTSKCGSLGNIHHKPGGGQVEVK

How the values were obtained:
[1] = Tau protease enzymatic activity of truncated tau peptides (general statement); type: biochemical
tau FRET peptide = assay: FRET assay of tau protease activity; type: biochemical; settings: 10, 25 or 50 μg oligomerized protein, 2.5 μg FRET peptide, 17 hrs at 37° C.
Description: The FRET assay peptide substrate is composed of nine amino acids surrounding the autoproteolytic cut site after Lys 340 in tau 4R2N with the fluorescent molecule methylcoumarin (MCA) at the amino terminus and the fluorescence quenching molecule dinitrophenol (DNP) at the C-terminus using an additional Lys at the C-terminus to conjugate it to the peptide: MCA-[…]-{Lys(DNP} (SEQ ID NO:18). The concept is that when tau protease cuts the peptide the quench is dissociated from the fluor such that there is a detectable increase in the fluorescence signal in the assay. This assay can be used to monitor tau protease activity to screen small molecule compounds, peptides or antibodies that modulate tau protease activity. This assay can also be used to characterize enzyme kinetics and optimize the buffer conditions for tau protease. […]
A FRET assay was conducted to determine if the Tau 4R2N 260-340 construct has protease activity using the tau FRET peptide described in FIG. 22 and FIG. 23. […] To determine the background values for the wells of the 96-well plate 95 microliter of buffer was added to the wells of a black 96-well Microfluor I plate (ThermoFisher Scientific) and an EnVision plate reader was used to determine signal (as described in FIG. 23). 5 μL of each sample was mixed with the buffer in the wells and the signal was determined. […]

[2] = system: Tau 4R2N (amino acids 335-353) peptide substrate; assay: Peptide digest HPLC assay of tau protease activity; type: biochemical, human; settings: oligomerized truncated tau, 37° C., overnight (TP-210) or 44 hr (TP-99)
Description: N-terminal sequencing of fragments using mass spectrometry identified autoproteolytic cut sites. In particular, cutting at the Lys340-Ser341 (340KS341) cut site occurred readily. Therefore, a 19-amino acid peptide corresponding to amino acids 335G to 353L of tau protein was synthesized that contained the KS cut site (340KS341). The reaction was monitored by reverse-phase high-pressure liquid chromatography (HPLC). […] An asterisk marks a non-specific contaminant that was used as a marker. […] 10 μg of tau peptide 335-353 ([…]) (SEQ ID NO:19) was custom synthesized by Genscript (Piscataway, N.J., USA) and 1 mg was dissolved in 1 mL of buffer (25 mM Tris-HCl pH 7.4). […] 32Karat™ LC-CE System, Beckman Coulter, Inc., (Indianapolis, Ind.)] using a linear gradient of acetonitrile in 0.1% TFA 0-60% acetonitrile on an analytical C18 column (12.5 cm×2.1 mm, 5 μm, (Supelco, Bellefonte, Pa., USA). 30 μg of peptide was incubated without tau protease as a negative control and analyzed with the same method;
Cleavage of the peptide substrate for tau protease, Tau 4R2N (amino acids 335-353) […] (SEQ ID NO.19), was used to monitor activity using reverse-phase HPLC. […] The large peak in the lower trace indicated intact peptide was greatly diminished in the upper trace and replaced with two smaller peaks F1 and F2 that represent fragments generated by TP-210. […]

| Molecule | tau protease enzymatic activity [1] | cutting of tau FRET peptide (tau FRET peptide) | protease activity on tau peptide 335-353 (HPLC) [2] |
| --- | --- | --- | --- |
| B1 | retain tau protease enzymatic activity |  |  |
| B2 | retain tau protease enzymatic activity | cuts tau FRET peptide |  |
| B3 | retain tau protease enzymatic activity |  | showed protease activity |
| B4 | retain tau protease enzymatic activity |  | retained proteolytic activity |
